To fix the notation:
B1: recombinant human TNFβ (ligand, UniProt P01374 35-205, looked up)
chain: LPGVGLTPSAAQTARQHPKMHLAHSTLKPAAHLIGDPSKQNSLLWRANTDRAFLQDGFSLSNNSLLVPTSGIYFVYSQVVFSGKAYSPKATSSPLYLAHEVQLFSSQYPFHVPLLSSQKMVYPGLQEPWLHSMYHGAAFQLTQGDQLSTHTDGIPHLVLSPSTVFFGAFAL
B2: humanized scFv 16-02-B03-sc02 (scFv)
scFv: MDIQMTQSPSSLSASVGDRVTITCQSSQSVYSSNLAWYQQKPGKAPKLLIYSASKLASGVPSRFSGSGSGTDFTLTISSLQPEDEATYYCQGTYYTSNWLNAFGGGTKLTVLGGGGGSGGGGSGGGGSGGGGSEVQLVESGGGLVQPGGSLRLSCAASGIDLSSYAMGWVRQAPGKGLEWIGTISVGGSTYYANWAEGRFTISRDNSKNTVYLQMNSLRAEDTAVYYCAGGDYINFFYFNIWGQGTLVTVSS
notes: CDR graft on a Vκ1/VH3 scaffold; also called 16-02-B03-sc02 (CDR); 16-02-B03-sc02-scFv

Test [1] has as its target B2. Kind of test: competition ELISA: scFv coated, biotinylated TNFα, unlabeled TNFβ or TNFα as competitor. The text has this:
(§1) The quality of recombinant human TNFβ has been analyzed 1) for purity by SDS-page and HPLC analysis, and 2) for biological activity in the mouse L929 cytotoxicity assay, by the manufacturer of the protein.
On the technique in general: An ELISA detects its analyte on a solid surface through an enzyme-linked reagent.

In test [2] the target is B2. Kind of test: competition ELISA: scFv coated, biotinylated TNFα 75 ng/mL, unlabeled TNFβ as competitor.
Source text: as §1

Test [3] has as its target T1, recombinant human TNFα (human, UniProt P01375 77-233).
T1 construct: also called TNFα trimer; biotinylated TNFα
Kind of test: inhibition ELISA; biotinylated TNFα 960 pM pre-incubated with scFv; competitor TNFRI-Fc coated.

Test [4] addresses T2, recombinant Cynomolgus monkey TNFα (Cynomolgus monkey (Macaca fascicularis), UniProt P79337 77-233). Kind of test: cell-based or functional assay.
Test [5] concerns the target T1, recombinant human TNFα. Kind of test: cell-based or functional assay.
Test [6] deals with T3, Rhesus monkey TNFα (Rhesus monkey (Macaca mulatta), UniProt P48094 77-233). Kind of test: cell-based or functional assay.
Test [7] has as its target T2, recombinant Cynomolgus monkey TNFα. Kind of test: SPR (MASS-1); TNFα amine-coupled on chip, scFv injected 45-1.4 nM. The protocol: (§2) In a second step, Single Injection Cycle Kinetics (SiCK) were measured from a single injection cycle by simultaneously injecting six analyte samples at different concentrations into each of the eight parallel channels in the MASS-1 system. […] The apparent dissociation (kd) and association (kₐ) rate constants and the apparent dissociation equilibrium constant (KD) were calculated with the MASS-1 analysis software (Analyzer, Sierra Sensors) using one-to-one Langmuir binding model and quality of the fits was monitored based on Chi², which is a measure for the quality of the curve fitting. The smaller the value for the Chi² the more accurate is the fitting to the one-to-one Langmuir binding model. For affinity screenings, results were deemed valid if the Chi² was below 10 for the concentration analyzed. In cases where several scFv concentrations were analyzed, results were deemed valid if the average Chi² over all the concentrations tested was below 10.

Test [8] deals with T1, recombinant human TNFα. The test is described as above. The procedure: as §2
Test [9] has as its target T3, Rhesus monkey TNFα. The test is described as above. The procedure:
as §2

For test [10], the target named is B1. Kind of test: competition ELISA: scFv coated, biotinylated TNFα, unlabeled TNFβ as competitor. The procedure:
To control precision of the response, the dose-response curves was analyzed in duplicate.

Test [11] addresses T1, recombinant human TNFα. Kind of test: inhibition ELISA; biotinylated TNFα 960 pM pre-incubated with scFv; competitor TNFRII-Fc coated. The procedure: For the second inhibition ELISA, the extracellular domain of TNFRII fused to the Fc region of human IgG (R&D Systems, Cat. No. 726-R2) was coated at a concentration of 2 μg/mL. All subsequent steps were identical for both assays.

The text below walks through data of patent US20190194310A1 (NUMAB INNOVATION, published 2019).

T2 sequence (P79337 77-233 limits assumed): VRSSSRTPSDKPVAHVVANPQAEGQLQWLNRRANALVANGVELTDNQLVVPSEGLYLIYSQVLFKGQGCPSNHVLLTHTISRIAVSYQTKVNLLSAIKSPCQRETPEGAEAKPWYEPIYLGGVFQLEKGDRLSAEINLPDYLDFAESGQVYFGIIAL
T3 sequence (P48094 77-233 limits assumed): as the sequence (P79337 77-233 limits assumed) above, with V37L counted along it
T1 sequence (P01375 77-233 limits assumed): as the sequence (P79337 77-233 limits assumed) above, with V37L, T44R, N72T, L138R counted along it

Broadly, the IC50 is the concentration that gives 50% inhibition. As to B1, the “Target selectivity, rel. IC50 of TNFβ vs TNFα” value in test [1] is more than 10000 fold. For the same molecule, in [2], the IC50 is more than 1250 µg/mL.

The term Kd denotes the free concentration of one partner at which half of the binding sites on the other are occupied at equilibrium, for simple one-to-one binding. The koff is the first-order rate constant of dissociation. The term kon denotes the second-order rate constant of association. Consider B2, for which the IC50 was 0.0737 µg/mL in test [3] and 0.0795 µg/mL in test [11]. The “Species-specificity IC50 [ng/mL], cyno (L929 assay)” value in test [4] is 99.3 ng/mL. Further, in test [5], the “Potency (L929 assay), rel. IC50 (IC50,Infliximab/IC50,scFv, ng/mL)” value is 1.7. The “Species-specificity IC50 [ng/mL], human (L929 assay)” value in test [5] came to 6.9 ng/mL. For the same molecule, in [6], the “Species-specificity IC50 [ng/mL], rhesus (L929 assay)” value stood at 71.8 ng/mL. Also, the Kd in test [7] was 1.1 nM; in [8], 0.16 nM; in [9], 1.6 nM. For the same molecule, the koff in test [7] came to 0.00021 s⁻¹; in test [8], 6.6e-05 s⁻¹; in [9], 0.00022 s⁻¹. Also, the values for the kon in test [7], in test [8] and in test [9] were 180000 M⁻¹ s⁻¹, 410000 M⁻¹ s⁻¹ and 130000 M⁻¹ s⁻¹, respectively. In test [10], the binding result is listed as “no binding (tested: 1250 µg/mL)”.
